From patent publication US20050079559

Target: bacterial recombinant GST-Smad3 (UniProt P84022)
Sequence (P84022 whole entry, looked up): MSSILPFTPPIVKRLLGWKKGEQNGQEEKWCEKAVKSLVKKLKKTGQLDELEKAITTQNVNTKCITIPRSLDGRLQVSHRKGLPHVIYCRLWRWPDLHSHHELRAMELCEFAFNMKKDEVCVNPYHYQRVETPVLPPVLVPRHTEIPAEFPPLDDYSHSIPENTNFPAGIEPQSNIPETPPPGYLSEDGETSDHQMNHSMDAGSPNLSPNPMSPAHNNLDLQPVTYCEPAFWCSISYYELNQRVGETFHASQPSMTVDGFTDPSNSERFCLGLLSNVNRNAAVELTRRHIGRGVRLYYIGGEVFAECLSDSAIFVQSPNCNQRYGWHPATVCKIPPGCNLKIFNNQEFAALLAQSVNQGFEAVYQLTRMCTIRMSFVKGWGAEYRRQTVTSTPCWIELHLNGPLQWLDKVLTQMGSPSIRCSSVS

Substance: phosphorylated (active) JNK
- phosphorylation of recombinant Smad3 in an in vitro kinase assay, detected by immunoblotting: the linker region of Smad3 was directly phosphorylated by p38 and JNK

Substance: phosphorylated (active) p38
- phosphorylation of recombinant Smad3 in an in vitro kinase assay, detected by immunoblotting: the linker region of Smad3 was directly phosphorylated by p38 and JNK
